B1: slPsT1: mBpsA with T-domain from pspph1926 gene of P. syringae 1448a; SEQ ID NO: 9 (protein)
chain: MTLQETSVLEPTLQGTTTLPGLLAQRVAEHPEAIAVAYRDDKLTFRELASRSAALADYLEHLGVSADDCVGLFVEPSIDLMVGAWGILNAGAAYLPLSPEYPEDRLRYMIENSETKIILAQQRLVSRLRELAPKDVTIVTLRESEAFVRPEGTEAPAARSARPDTLAYVIYTSGSTGKPKGVMIEHRSIVNQLGWLRETYAIDRSKVILQKTPMSFDAAQWEILSPANGATVVMGAPGVYADPEGLIETIVKHNVTTLQCVPTLLQGLIDTEKFPECVSLQQIFSGGEALSRLLAIQTTQEMPGRALINVYGPTETTINSSSFPVDPADLDEGPQSISIGSPVHGTTYHILDKETLKPVGVGEIGELYIGGIQLARGYLHRDDLTAERFLEIELEEGAEPVRLYKTGDLGQWNNDGTVQFAGRADNQVKLRGYRVELDEISLAIENHDWVRNAAVIVKNDGRTGFQNLIACIELSEKEAALMDQGNHGSHHASKKSKLQVKAQLSNPGLRDDAELAARPAFDLEGAEPTPEQRARVFARKTYRFYEGGAVTQADLLGLLGATVTAGYSRKAADLAPAELGQILRWFGQYISEERLLPKYGYASPGALYATQMYFELEGVGGLKPGYYYYQPVRHQLVLISEREATGKATAQIHFIGKKSGIEPVYKNNILEVLEIETGHMVGLFEQILPAYGLDIHDRAYEPAVKDLLDVADEDYYLGTFELVPHAGARDDQAEVYVQTHGGKVAGLPEGQYRYENGELTRFSDDIVLKKHVIAINQSVYQAASFGISVYSRAEEEWLKYITLGKKLQHLMMNGLNLGFMSSGYSSKTGNPLPASRRMDAVLGANGVDSAPMYFFVGGRISDEQIGHEGMREDSVHMRGPAELIRDDLVSFLPDYMIPNRVVVFDRLPLSANGKIDVKALAASDQVNAELVERPHVAPRTEFEQRLAALWEQVLQVERVGLNDNFFALGGHSLLAVSLAGRIRETFDVSIKLHDFLLMQTLGELADFMRREVAQESSRFVRLHAETGKARPVICWPGLGGYPMNLRSLAGEIGLGRSFYGVQSYGINEGETPYETITEMAKKDIEALKEIQPAGPYTLWGYSFGARVAFETAYQLEQAGEKVDNLFLIAPGSPKVRAENGKVWGREASFANRGYTTILFSVFTGTISGPDLDRCLETVTDEASFAEFISELKGIDVDLARRIISVVGQTYEFEYSFHELAERTLQAPISIFKAVGDDYSFLENSSGYSAEPPTVIDLDADHYSLLREDIGELVKHIRYLLGE
B2: slPvdD2: mBpsA with T-domain from second module of pvdD of P. aeruginosa PAO1; SEQ ID NO: 7 (protein)
chain: MTLQETSVLEPTLQGTTTLPGLLAQRVAEHPEAIAVAYRDDKLTFRELASRSAALADYLEHLGVSADDCVGLFVEPSIDLMVGAWGILNAGAAYLPLSPEYPEDRLRYMIENSETKIILAQQRLVSRLRELAPKDVTIVTLRESEAFVRPEGTEAPAARSARPDTLAYVIYTSGSTGKPKGVMIEHRSIVNQLGWLRETYAIDRSKVILQKTPMSFDAAQWEILSPANGATVVMGAPGVYADPEGLIETIVKHNVTTLQCVPTLLQGLIDTEKFPECVSLQQIFSGGEALSRLLAIQTTQEMPGRALINVYGPTETTINSSSFPVDPADLDEGPQSISIGSPVHGTTYHILDKETLKPVGVGEIGELYIGGIQLARGYLHRDDLTAERFLEIELEEGAEPVRLYKTGDLGQWNNDGTVQFAGRADNQVKLRGYRVELDEISLAIENHDWVRNAAVIVKNDGRTGFQNLIACIELSEKEAALMDQGNHGSHHASKKSKLQVKAQLSNPGLRDDAELAARPAFDLEGAEPTPEQRARVFARKTYRFYEGGAVTQADLLGLLGATVTAGYSRKAADLAPAELGQILRWFGQYISEERLLPKYGYASPGALYATQMYFELEGVGGLKPGYYYYQPVRHQLVLISEREATGKATAQIHFIGKKSGIEPVYKNNILEVLEIETGHMVGLFEQILPAYGLDIHDRAYEPAVKDLLDVADEDYYLGTFELVPHAGARDDQAEVYVQTHGGKVAGLPEGQYRYENGELTRFSDDIVLKKHVIAINQSVYQAASFGISVYSRAEEEWLKYITLGKKLQHLMMNGLNLGFMSSGYSSKTGNPLPASRRMDAVLGANGVDSAPMYFFVGGRISDEQIGHEGMREDSVHMRGPAELIRDDLVSFLPDYMIPNRVVVFDRLPLSANGKIDVKALAASDQVNAELVERPYRAPGSELEQRIAAIWAEILGVERVGLDDNFFELGGHSLLLLMLKERIGDTCQATLSISQLMTHASVAEQAACIEREVAQESSRFVRLHAETGKARPVICWPGLGGYPMNLRSLAGEIGLGRSFYGVQSYGINEGETPYETITEMAKKDIEALKEIQPAGPYTLWGYSFGARVAFETAYQLEQAGEKVDNLFLIAPGSPKVRAENGKVWGREASFANRGYTTILFSVFTGTISGPDLDRCLETVTDEASFAEFISELKGIDVDLARRIISVVGQTYEFEYSFHELAERTLQAPISIFKAVGDDYSFLENSSGYSAEPPTVIDLDADHYSLLREDIGELVKHIRYLLGE

Columns and labels:
[1] = test system: BpsA, single module non-ribosomal peptide synthetase of Streptomyces lavendulae ATCC 11924, purified recombinant 6His-tagged protein (apo form)
[2] = test system: wild type BpsA reporter expressed in E. coli BL21(DE3) from a pCDFDuet-based plasmid (slBPSA)
[3] = test system: E. coli harbouring an activating PPTase; assay: In vivo pigment synthesis activity of BpsA derivatives relative to wild type BpsA; format: cell-based; details: E. coli, supernatant A590
Text: A detailed description of the method used for generation of mBpsA derivatives is given in Section 4.15. Briefly, a plasmid containing bpsA lacking its native T-domain (pBPSA3) was created. This plasmid contained restriction enzyme sites which were subsequently used to introduce foreign T-domain sequence. Foreign T-domains were then amplified from the chromosomal DNA of their host organisms and introduced into pBPSA3 to generate mBpsA derivatives which contained T-domains from foreign NRPS proteins in place of the native T-domain. Only the final embodiment of the T-domain swapping platform is described in this application. This embodiment is the result of rational in-silico design as well as trial and error, which are not described. Using this final platform, five different mBpsA derivatives were generated and subsequently assessed for in vivo pigment synthesis capacity in E. coli harbouring an activating PPTase. Table 3.1 gives a summary of the mBpsA derivatives generated as well as their in vivo pigment synthesis activities relative to wild type BpsA. The derivation of in vivo pigment synthesis activity was as described in 4.10.
For second tier screening, up to 45 improved clones, along with a positive and negative control, were stored as duplicate glycerol stocks in a 96wp. From this plate duplicate overnight cultures were established in LB supplemented with 0.4% glucose and appropriate antibiotics. […] Overnight cultures were grown for 16-20 h (37° C. 200 rpm) before transfer of 20 μl of each culture into a fresh well containing 130 μL LB supplemented with 115 mM L-Gln, 0.6 mM IPTG and appropriate antibiotics. Assay plates set up in this fashion contained duplicate cultures for each clone from two separate overnights. Assay plates were then wrapped in foil and incubated for 6-24 h (18° C., 200 rpm), depending on activity of improved clones. After incubation cells were collected at the corner of each well by centrifugation and OD 590 values determined using a microplate reader. Assays were repeated at least twice before determination of clones for sequence analysis.
In vivo pigment synthesis efficiencies for recombinant BpsA proteins described in Section 3.2 were derived from three separate assays. This was necessary due to the fact that pigment synthesis of wild type BpsA saturate before activity of mBpsA derivatives was detectable. Replicate cultures for determination of in vivo pigment synthesis activity were established from overnight starter cultures in a 96 wp as described in Section 4.9.3 The values presented are derived as follows: quadruplicate values for WT BpsA and oBpsA (mutant with reduced activity) were determined after 3 h, at which point pigment production was not saturated for WT. A separate quadruplicate assay was then run to obtain a value for slEntF by comparison to oBpsA after 12 h. Quadruplicate values for slPsT and slPvdD2 were then obtained in a separate assay by comparison to slEntF after 12 h.

| Molecule | Km (BpsA as variable substrate), BpsA coupled indigoidine assay [1] | kcat (BpsA as variable substrate), BpsA coupled indigoidine assay [1] | kcat/Km (BpsA as variable substrate), BpsA coupled indigoidine assay [1] | production of indigoidine on co-expression in E. coli BL21(DE3) [2] | Relative activity (in vivo pigment synthesis relative to wild type BpsA) [3] |
| --- | --- | --- | --- | --- | --- |
| PP1183, putative phosphopantetheinyl transferase of Pseudomonas putida KT2440 | 8.6 µM | 0.185 s⁻¹ | 21500 M⁻¹ s⁻¹ | co-expression of BpsA with any of the three PPTases selected (Sfp, PcpS and PP1183) resulted in substantial production of indigoidine |  |
| Sfp, phosphopantetheinyl transferase of Bacillus subtilis subsp. spizizenii ATCC6633 | 3.3 µM | 0.0357 s⁻¹ | 10800 M⁻¹ s⁻¹ | co-expression of BpsA with any of the three PPTases selected (Sfp, PcpS and PP1183) resulted in substantial production of indigoidine |  |
| B1 |  |  |  |  | ~5% |
| B2 |  |  |  |  | ~5% |

From patent US20130260436A1, “Methods of Identifying and Characterizing Natural Product Gene Clusters” (Victoria LInk Limited, priority 2010, published 2013)
